Results published in patent publication US10471162B2, “Collagen targeted imaging probes” (priority 2014, dated 2019).

Legend:
in vivo [1] = assay: in vivo; parameters: species or system mouse; conditions: male, C57Bl/6, mouse, iv, total radioactivity, Biodistribution % ID/lung
Description: (§1) Adult male C57Bl/6 mice were administered a single intratracheal dose of low dose bleomycin at 0.1 U/kg (low dose), in a total volume of 50 μl sterile saline. FTY720 was administered intraperitoneally to the mice at 1 mg/kg three times a week. To effect treatment in the low dose bleomycin, vascular leak model, the therapeutic murine antibody 3G9 (alpha-v-beta6 blocking antibody) and 1E6 (matched isotype control antibody) were used. Antibodies were injected into mice intraperitoneally three times week at a concentration of 1 mg/kg. All administrations of FTY720 and antibodies were initiated on day 0, ˜30 minutes before bleomycin challenge and continued throughout the duration of the experiments. […] The tissues were weighed, and radioactivity in each tissue was measured on a gamma counter (CobraII Auto gamma; Packard). The radioactivity in the lung was reported as percent injected dose per gram corrected with the average sham weight, which was calculated by dividing the counts of ^64Cu per average sham tissue weight in gram by the total of counts of the injected dose. The radioactivity in every other tissue was reported as percent injected dose per gram (% ID/g), which was calculated by dividing the counts of ^64Cu per gram of tissue by the total of counts of the injected dose. […] Uncertainties are expressed as the standard error of the mean.

[2] = test system: pulmonary fibrosis, low dose bleomycin, vascular leak model; assay: in vivo; parameters: species or system mouse; conditions: mouse
Description: as §1

in vivo [3] = type: in vivo, mouse; conditions: male, C57/BL6, mouse, in vivo, iv, total radioactivity, Biodistribution % ID/g
Description: (§2) Pulmonary fibrosis was induced in 7-8-week-old male C57/BL6 mice by transtracheal administration of bleomycin (BM; 2.5 U/kg) in 50 μL of PBS under direct vision using a small cervical incision. Sham animals received only PBS. Animals were placed in a small-animal PET/SPECT/CT scanner (Triumph; TriFoil Imaging), equipped with inhalation anesthesia and heating pad. Each animal was anesthetized with isoflurane (4% for induction, 2-2.5% for maintenance in medical air) and body temperature was kept at 37-38° C. using a heating pad. The femoral vein was cannulated for intravenous delivery of the PET agent. Each mouse was injected with approximately 0.1 mL and 20-50 μCi of ^64Cu-CBP(n), 0.1 mL and 20-50 μCi of ^68Ga-CBP(n) and 0.1 mL and 10-20 μCi of Al^18F-CBP(n) in a 18 mM solution of sucrose in water, followed by saline flush. […] The lungs, blood, urine, heart, liver, left rectus femoris muscle, spleen, small intestine, kidneys, left femur bone were collected from all animals. The tissues were weighed, and radioactivity in each tissue was measured on a gamma counter (CobraII Auto gamma; Packard). The radioactivity in the lung was reported as percent injected dose per gram corrected with the average sham weight, which was calculated by dividing the counts of ^64Cu per average sham tissue weight in gram by the total of counts of the injected dose. The radioactivity in every other tissue was reported as percent injected dose per gram (% ID/g), which was calculated by dividing the counts of ^64Cu per gram of tissue by the total of counts of the injected dose. A p-value of less than 0.05 was considered significant. Uncertainties are expressed as the standard error of the mean.

[4] = test system: pulmonary fibrosis, C57/BL6 mice (bleomycin or sham); assay: in vivo; type: in vivo, mouse; conditions: male, C57/BL6, mouse, in vivo, iv, 2.5 h
Description: as §2

For `CC(C)C[C@H](NC(=O)[C@@H]1CSSC[C@H](NC(=O)[C@H](Cc2c[nH]cn2)NC(=O)[C@H](Cc2c[nH]c3ccccc23)NC(=O)[C@H](CCCCNC(=O)CNC(=O)CCC(C(=O)O)N2CCN(CC(=O)O)CCN(CC(=O)O)CC2)NC(=O)CNC(=O)CCC(C(=O)O)N2CCN(CC(=O)O)CCN(CC(=O)O)CC2)C(=O)N[C@@H]([C@@H](C)O)C(=O)N[C@@H]([C@@H](C)O)C(=O)N[C@@H](CCCCNC(=O)CCC(C(=O)O)N2CCN(CC(=O)O)CCN(CC(=O)O)CC2)C(=O)N[C@@H](Cc2ccccc2)C(=O)N2CCC[C@H]2C(=O)N[C@@H](Cc2c[nH]cn2)C(=O)N[C@@H](Cc2c[nH]cn2)C(=O)N[C@@H](Cc2ccc(O)cc2)C(=O)N1)C(=O)N[C@@H](Cc1ccc(O)cc1)C(=O)N[C@@H](Cc1ccc(-c2ccccc2)cc1)C(N)=O` (single isomer, unassigned) [CBP8], the tissue uptake dose at 2.5 h (in vivo [1]) was 0.043 ± 0.001 %ID, the “organ uptake between groups, except lungs, in words” value [2] was “not significantly different” and the tissue uptake at 2.5 h (in vivo [3]; blood) was 0.512 ± 0.181 %ID/g. The tissue uptake at 2.5 h (in vivo [3]; bone) was 1.11 ± 0.594 %ID/g, the tissue uptake at 2.5 h (in vivo [3]; heart) was 0.242 ± 0.059 %ID/g and the tissue uptake at 2.5 h (in vivo [3]; kidney) was 30 ± 4.59 %ID/g. The tissue uptake at 2.5 h (in vivo [3]; liver) was 0.95 ± 0.127 %ID/g, the tissue uptake at 2.5 h (in vivo [3]; muscle) was 0.567 ± 0.247 %ID/g and the tissue uptake at 2.5 h (in vivo [3]; sm. intestine) was 0.42 ± 0.086 %ID/g. The tissue uptake at 2.5 h (in vivo [3]; spleen) was 0.462 ± 0.047 %ID/g, the “Biodistribution % ID/g, blood” value [4] was 0.569 ± 0.102 % ID/g and the “Biodistribution % ID/g, bone” value [4] was 1.117 ± 0.347 % ID/g. For the same compound, the “Biodistribution % ID/g, heart” value [4] was 0.340 ± 0.032 % ID/g, the “Biodistribution % ID/g, kidney” value [4] was 41.063 ± 5.830 % ID/g and the “Biodistribution % ID/g, liver” value [4] was 1.189 ± 0.113 % ID/g. The “Biodistribution % ID/g, muscle” value [4] was 0.927 ± 0.422 % ID/g, the “Biodistribution % ID/g, sm. intestine” value [4] was 0.830 ± 0.197 % ID/g and the “Biodistribution % ID/g, spleen” value [4] was 0.659 ± 0.141 % ID/g.
